Laboratory results from PMC7039449, “FMN-dependent oligomerization of putative lactate oxidase from Pediococcus acidilactici” (PLoS ONE, 2020).

Legend:
PaLCTO = target: T1, PaLCTO (Pediococcus acidilactici, UniProt E0NE46); assay: X-ray crystallography, […] Å (refolded with FMN: 6RHS, […] Å); SEC; type: binding; details: FMN in active site; FMN addition turns apo monomer into tetramer
T1 construct: gene lctO; recombinant in E. coli, pNH-TrxT, N-terminal thioredoxin/His tag cut with TEV; 39 kDa monomer, FMN-containing homotetramer (158 kDa)
T1 sequence (E0NE46 1-369): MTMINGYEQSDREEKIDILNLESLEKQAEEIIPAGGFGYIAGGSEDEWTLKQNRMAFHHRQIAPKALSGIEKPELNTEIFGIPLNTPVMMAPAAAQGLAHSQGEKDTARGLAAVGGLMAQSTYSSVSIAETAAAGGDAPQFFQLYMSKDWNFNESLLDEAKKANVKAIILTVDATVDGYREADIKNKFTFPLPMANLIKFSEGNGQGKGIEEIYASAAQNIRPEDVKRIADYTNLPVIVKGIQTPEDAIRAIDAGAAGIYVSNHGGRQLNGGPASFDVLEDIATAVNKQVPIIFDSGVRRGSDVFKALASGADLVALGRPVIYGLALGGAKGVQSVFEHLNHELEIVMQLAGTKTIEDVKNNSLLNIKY

purified protein = substrate: C[C@H](O)C(=O)O; assay: purified protein; details: pH 6.5 (DMGA buffer), 37 °C, FMN added, air, L-lactate 0.2-2.0 mM, in-house recombinant enzyme
[1] = target: the molecule itself; assay: SEC; recombinant AvLCTO, data not shown
[2] = target: the molecule itself; assay: SEC; analytical SEC of the yellow, FMN-containing fraction; Superdex 200 Increase 10/300 calibrated with Bio-Rad standards; 30 mM Hepes pH 7.5, 350 mM NaCl, 0.5 mM TCEP

Cc1cc2nc3c(=O)[nH]c(=O)nc-3n(C[C@H](O)[C@H](O)[C@H](O)COP(=O)(O)O)c2cc1C [FMN]
X-ray crystallography, 1.9 Å (refolded with FMN: 6RHS, 2.6 Å); SEC (PaLCTO): The hydrogen bonding network between FMN and the surrounding residues contains in total twelve interactions

B1: Aerococcus viridans lactate oxidase (enzyme)
chain: MNNNDIEYNAPSEIKYIDVVNTYDLEEEASKVVPHGGFNYIAGASGDEWTKRANDRAWKHKLLYPRLAQDVEAPDTSTEILGHKIKAPFIMAPIAAHGLAHTTKEAGTARAVSEFGTIMSISAYSGATFEEISEGLNGGPRWFQIYMAKDDQQNRDILDEAKSDGATAIILTADSTVSGNRDRDVKNKFVYPFGMPIVQRYLRGTAEGMSLNNIYGASKQKISPRDIEEIAGHSGLPVFVKGIQHPEDADMAIKRGASGIWVSNHGARQLYEAPGSFDTLPAIAERVNKRVPIVFDSGVRRGEHVAKALASGADVVALGRPVLFGLALGGWQGAYSVLDYFQKDLTRVMQLTGSQNVEDLKGLDLFDNPYGYEY
notes: L-lactate oxidase of Aerococcus viridans, cloned from genomic DNA of strain DSM 20340; also called AvLCTO; recombinant AvLCTO; source: E. coli BL21 (DE3), purified
Km (purified protein): 0.52 ± 0.05 mM | stoichiometry N [1]: 4

B2: Pediococcus acidilactici lactate oxidase (enzyme)
chain: T1 sequence (E0NE46 1-369)
notes: putative L-lactate oxidase of Pediococcus acidilactici DSM 20284, Uniprot E0NE46; gene cloned from genomic DNA into pNH-TrxT; theoretical monomer mass 39 kDa; The same polypeptide without FMN (colourless fraction, or deflavinated) is a monomer that lacks secondary structure by CD; also called PaLCTO; WT PaLCTO; source: E. coli BL21 (DE3), purified (Ni-NTA, TEV cleavage, second Ni-NTA, SEC); not …
stoichiometry N [2]: 4
